Laboratory results published in paper PMC5481773, “Structural insights into the function of ZRANB3 in replication stress response” (Nature Communications, 2017).
Numbering of substitutions follows the chain as printed. Numbers in names are those of the source.

B1: N1036A: ZRANB3 HNH active site mutant (protein, UniProt Q5FWF4 1-1079, looked up, variant N1036A)
DNA annealing helicase and …: MPRVHNIKKSLTPHISCVTNESDNLLDFLPDRLRAKLLPFQKDGIIFALKRNGRCMVADEMGLGKTIQAIGITYFYKEEWPLLIVVPSSLRYPWTEEIEKWIPELSPEEINVIQNKTDVRRMSTSKVTVLGYGLLTADAKTLIDALNNQNFKVVIVDESHYMKSRNATRSRILLPIVQKARRAILLTGTPALGRPEELFMQIEALFPQKFGRWTDYAKRYCNAHIRYFGKRPQWDCRGASNLNELHQLLSDIMIRRLKTEVLTQLPPKVRQRIPFDLPSAAAKELNTSFEEWEKIMRTPNSGAMETVMGLITRMFKQTAIAKAGAVKDYIKMMLQNDSLKFLVFAHHLSMLQACTEAVIENKTRYIRIDGSVSSSERIHLVNQFQKDPDTRVAILSIQAAGQGLTFTAASHVVFAELYWDPGHIKQAEDRAHRIGQCSSVNIHYLIANGTLDTLMWGMLNRKAQVTGSTLNGRKEKIQAEEGDKEKWDFLQFAEAWTPNDSSEELRKEALFTHFEKEKQHDIRSFFVPQPKKRQLMTSCDESKRFREENTVVSSDPTKTAARDIIDYESDVEPETKRLKLAASEDHCSPSEETPSQSKQIRTPLVESVQEAKAQLTTPAFPVEGWQCSLCTYINNSELPYCEMCETPQGSAVMQIDSLNHIQDKNEKDDSQKDTSKKVQTISDCEKQALAQSEPGQLADSKEETPKIEKEDGLTSQPGNEQWKSSDTLPVYDTLMFCASRNTDRIHIYTKDGKQMSCNFIPLDIKLDLWEDLPASFQLKQYRSLILRFVREWSSLTAMKQRIIRKSGQLFCSPILALEEITKQQTKQNCTKRYITKEDVAVASMDKVKNVGGHVRLITKESRPRDPFTKKLLEDGACVPFLNPYTVQADLTVKPSTSKGYLQAVDNEGNPLCLRCQQPTCQTKQACKANSWDSRFCSLKCQEEFWIRSNNSYLRAKVFETEHGVCQLCNVNAQELFLRLRDAPKSQRKNLLYATWTSKLPLEQLNEMIRNPGEGHFWQVDHIKPVYGGGGQCSLDALQTLCTVCHKERTARQAKERSQVRRQSLASKHGSDITRFLVKK
B2: H1045A: ZRANB3 HNH active site mutant (protein, UniProt Q5FWF4 1-1079, looked up, variant H1045A)
DNA annealing helicase and …: B1 DNA annealing helicase and … with A1036N, H1045A
B3: D1020A: ZRANB3 HNH active site mutant (protein, UniProt Q5FWF4 1-1079, looked up, variant D1020A)
DNA annealing helicase and …: B1 DNA annealing helicase and … with D1020A, A1036N
B4: H1021A: ZRANB3 HNH active site mutant (protein, UniProt Q5FWF4 1-1079, looked up, variant H1021A)
DNA annealing helicase and …: B1 DNA annealing helicase and … with H1021A, A1036N
B5: D1020Y: cancer associated ZRANB3 mutant (protein, UniProt Q5FWF4 1-1079, looked up, variant D1020Y)
DNA annealing helicase and …: B1 DNA annealing helicase and … with D1020Y, A1036N
B6: K984A: ZRANB3 basic residues HNH mutant (protein, UniProt Q5FWF4 1-1079, looked up, variant K984A)
DNA annealing helicase and …: B1 DNA annealing helicase and … with K984A, A1036N
B7: R947Q: cancer associated ZRANB3 mutant (protein, UniProt Q5FWF4 1-1079, looked up, variant R947Q)
DNA annealing helicase and …: B1 DNA annealing helicase and … with R947Q, A1036N
B8: K1046A, R1048A: ZRANB3 double mutant in helix α8 (protein, UniProt Q5FWF4 1-1079, looked up, variant K1046A R1048A)
DNA annealing helicase and …: B1 DNA annealing helicase and … with A1036N, K1046A, R1048A
B9: R1009A: ZRANB3 basic residues HNH mutant (protein, UniProt Q5FWF4 1-1079, looked up, variant R1009A)
DNA annealing helicase and …: B1 DNA annealing helicase and … with R1009A, A1036N
B10: R987A: ZRANB3 basic residues HNH mutant (protein, UniProt Q5FWF4 1-1079, looked up, variant R987A)
DNA annealing helicase and …: B1 DNA annealing helicase and … with R987A, A1036N
B11: H1015A: ZRANB3 HNH active site mutant (protein, UniProt Q5FWF4 1-1079, looked up, variant H1015A)
DNA annealing helicase and …: B1 DNA annealing helicase and … with H1015A, A1036N
B12: K998A: ZRANB3 basic residues HNH mutant (protein, UniProt Q5FWF4 1-1079, looked up, variant K998A)
DNA annealing helicase and …: B1 DNA annealing helicase and … with K998A, A1036N
B13: K988A: ZRANB3 basic residues HNH mutant (protein, UniProt Q5FWF4 1-1079, looked up, variant K988A)
DNA annealing helicase and …: B1 DNA annealing helicase and … with K988A, A1036N
B14: T66A: cancer associated ZRANB3 mutant (protein, UniProt Q5FWF4 1-1079, looked up, variant T66A)
DNA annealing helicase and …: B1 DNA annealing helicase and … with T66A, A1036N

system: splayed DNA duplex; assay: Nuclease assay with wild-type and mutant ZRANB3 proteins; assay type: biochemical; settings: 200 nM nuclease, 10 nM fluorescently labelled DNA substrate, 2 mM ATP, 30 °C, 60 min, native PAGE (Fig. 3c)
From the text: Figure 3 Characterisation of the ZRANB3 HNH active site. (a) Overlay of the T4 endonuclease VII (yellow) and the ZRANB3 HNH (white) structures. […] (b) Overlay of the T4 endonuclease VII (yellow, labels in italics) and the ZRANB3 HNH (white) structures. Mg^2+ ion in T4 endonuclease is shown as a purple sphere. His1021, Asp1020 and His1045 in the HNH structure overlap with the active site residues of T4 endonuclease VII. (c) Nuclease assay with the wild-type and mutant ZRANB3 proteins in the presence and absence of ATP. Reactions were analysed by native poly-acrylamide gel electrophoresis. Indicated are mobilities of the fluorescently labelled DNA substrate and product. (d) Nuclease assay with non-hydrolysable ATP homologues. Shown are controls with the wild-type ZRANB3 and the ATPase dead K65R mutant in the presence of ATP.
Oligonucleotides used in the nuclease assays (5′-[…]-[…]-3′ and Cy3 5′-end-labelled 5′-[…]-[…]-3′) were incubated in 10 mM Tris-HCl pH 7.5, 50 mM NaCl for 3 min at 94 °C, after which the reactions were allowed to gradually cool down.
The nuclease assays with ZRANB3 was performed essentially as described in ref. [9]. Briefly, reaction mixtures containing the indicated nuclease (200 nM) and fluorescently labelled DNA substrate (10 nM) in 10 μl of reaction buffer (50 mM Tris-HCl; 50 mM NaCl; 5 mM MgCl2; 2 mM ATP (Sigma); pH 7.5) were incubated at 30 °C for 60 min. The reactions were stopped by incubation with 0.1% SDS and 4 mg ml^−1 of proteinase K at 30 °C for 45 min. The reactions were then mixed with sucrose (10% final concentration) and resolved in a 10% polyacrylamide gel in 0.5 × TBE buffer (45 mM Tris-borate, 1 mM EDTA; pH 7.5). The fluorescent DNA species were visualized and quantified using Pharos Mx imager and Quantity one software (BioRad).

Molecule	ZRANB3 endonuclease activity of mutant protein
B1	substantially reduced
B2	completely abrogated
B3	completely abrogated
B4	completely abrogated

system: not listed separately; assay: NADH-coupled ATPase assay of ZRANB3 proteins; assay type: biochemical; settings: 150 nM ZRANB3, 5 mM ATP, 0.5 μM flap DNA, 24 °C, A340 nm, average rates
Description: The NADH-coupled ATPase assay is based on a reaction in which the regeneration of hydrolysed ATP is coupled to the oxidation of NADH[59]. It was used as described, with minor modifications. ZRANB3 (150 nM) was added to a 150 μl reaction containing 25 mM Tris-Cl pH 7.5, 13 mM MgCl2, 1.8 mM DTT, 100 μg ml^−1 BSA, 3 mM phosphoenolpyruvate, 36 U ml^−1 pyruvate kinase, 20 U ml^−1 lactate dehydrogenase, 0.5 μM flap DNA, and 5 mM ATP, with 750 μM NADH added immediately before ZRANB3. Reactions were mixed for 1 min on a shaker at 23 °C and analysed by measuring A340 nm at 20 s intervals during 60 min, on a Spectramax 250 microplate spectrophotometer at 24 °C. Linear titration of freshly prepared NADH was performed to obtain a standard curve for units of absorbance mM^−1 NADH. ATPase rates were calculated from data collected between time points where product formation was linear with respect to time.

Molecule	ATP hydrolysis rate [µmol/L/min]
B1	14.05 ± 2.46
B5	11.60 ± 3.30
B2	8.91 ± 0.66
B6	20.93 ± 2.01
B7	10.24 ± 1.15
B8	19.38 ± 1.74
B9	7.49 ± 2.57
B10	6.34 ± 0.40
B11	18.67 ± 2.24
B3	12.94 ± 0.67
B12	15.12 ± 0.48
B4	18.59 ± 1.98
B13	18.83 ± 1.94
B14	0.45 ± 0.03

same assay, conditions: 150 nM ZRANB3, 5 mM ATP, 0.5 μM flap DNA, 24 °C, average rates

Molecule	k [min⁻¹]
B1	93.71 ± 16.43
B5	77.36 ± 22.04
B2	59.42 ± 4.40
B6	139.56 ± 13.45
B7	68.26 ± 7.70
B8	129.23 ± 11.62
B9	49.94 ± 17.14
B10	42.31 ± 2.70
B11	124.46 ± 14.96
B3	86.32 ± 4.49
B12	100.85 ± 3.22
B4	123.95 ± 13.19
B13	125.55 ± 12.95
B14	3.02 ± 0.21
